Here are results for one molecule from PMC3325211, “Mutations in MITF and PAX3 Cause “Splashed White” and Other White Spotting Phenotypes in Horses”.

The series concerns the target MITF wild-type (DNA-binding fragment) (UniProt Q95MD1 112-207). In words: EMSA; 5 mM MgCl2; 20 mM Tris, 50 mM NaCl, 5 mM MgCl2, 1 mM DTT, 33 ug/ml BSA, pH 7.4, on ice 30 min; 6% native PAGE in 0.5x TBE. To be noted: protein: recombinant; (Ni-NTA purified); chain copies: 2; label: radioactive label. (A gel shift assay detects complexes by their altered migration in electrophoresis.)

Sequence of MITF wild-type (DNA-binding fragment) (Q95MD1 entry or part of it): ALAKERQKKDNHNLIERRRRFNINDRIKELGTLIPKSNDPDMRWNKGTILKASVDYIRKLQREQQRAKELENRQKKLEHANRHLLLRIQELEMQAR

B1: M-box oligonucleotide (dsDNA)
DNA 1: GGAAAGTTAGTCATGTGCTTTTCAGAAGA
DNA 2: TCTTCTGAAAAGCACATGACTAACTTTCC
For B1, the binding result was “binds”.
